This experiment addresses Keap1 Kelch domain (amino acid residues 309 to 624) (human) (UniProt Q14145). In words: ITC; MicroCal ITC200, 25 °C, 20 mM Tris‐HCl and 150 mM NaCl; Kelch and synthetic PGAM5 peptides; 19 injections at 2‐min intervals.

Keap1 Kelch domain (amino acid residues 309 to 624) (human), sequence (Q14145 309-624): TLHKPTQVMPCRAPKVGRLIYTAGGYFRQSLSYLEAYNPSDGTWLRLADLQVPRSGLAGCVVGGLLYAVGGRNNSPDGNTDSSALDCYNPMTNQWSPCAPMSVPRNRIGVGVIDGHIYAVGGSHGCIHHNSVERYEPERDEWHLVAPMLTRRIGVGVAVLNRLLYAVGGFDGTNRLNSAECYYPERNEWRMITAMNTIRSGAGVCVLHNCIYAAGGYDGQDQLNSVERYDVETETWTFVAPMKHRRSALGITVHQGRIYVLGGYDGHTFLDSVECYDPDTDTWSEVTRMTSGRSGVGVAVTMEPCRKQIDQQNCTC

With “PGAM5 20‐mer peptide (based on the ESGE motif)”, the Kd came out at 0.107 µM.

Consider “E79A mutant based on the PGAM5 20‐mer peptide”, for which the Kd was determined as 37.7 µM.

For the origin of these results see article PMC11481384.
